Assay results as given in US20180155451A1 (published 2018).

B1: GpH7-A5/GpH7-B3 variant A327_14T/GpL16-k0 (antibody, human IgG1, kappa)
heavy 1: not shown
heavy 2: not shown
light: DIVMTQSPLSLPVTPGEPASISCQASESLVHSNRNTYLHWYLQKPGQSPQLLIYKVSNRFSGVPDRFSGSGSGTDFTLKISRVEAEDVGVYYCSQNTHVPPTFGQGTKVEIERTVAAPSVFIFPPSDEQLKSGTASVVCLLNNFYPREAKVQWKVDNALQSGNSQESVTEQDSKDSTYSLSSTLTLSKADYEKHKVYACEVTHQGLSSPVTKSFNRGEC
notes: Heterodimerized anti-glypican-3 IgG1; mutation in the GpH7-B3 H chain only; also called He Ab
B2: GpH7-A5/GpH7-B3 variant A327_18N/GpL16-k0 (antibody, human IgG1, kappa)
heavy 1: not shown
heavy 2: not shown
light: B1 light
notes: as for B1
B3: GpH7-A5/GpH7-B3 variant A330_05P/GpL16-k0 (antibody, human IgG1, kappa)
heavy 1: not shown
heavy 2: not shown
light: B1 light
notes: as for B1
B4: GpH7-A5/GpH7-B3 variant I332_10E/GpL16-k0 (antibody, human IgG1, kappa)
heavy 1: not shown
heavy 2: not shown
light: B1 light
notes: as for B1
B5: GpH7-A5/GpH7-B3 variant L328_03V/GpL16-k0 (antibody, human IgG1, kappa)
heavy 1: not shown
heavy 2: not shown
light: B1 light
notes: as for B1
B6: GpH7-A5/GpH7-B3 variant L328_04F/GpL16-k0 (antibody, human IgG1, kappa)
heavy 1: not shown
heavy 2: not shown
light: B1 light
notes: as for B1
B7: GpH7-A5/GpH7-B3 variant L328_05P/GpL16-k0 (antibody, human IgG1, kappa)
heavy 1: not shown
heavy 2: not shown
light: B1 light
notes: as for B1
B8: GpH7-A5/GpH7-B3 variant L328_06M/GpL16-k0 (antibody, human IgG1, kappa)
heavy 1: not shown
heavy 2: not shown
light: B1 light
notes: as for B1
B9: GpH7-A5/GpH7-B3 variant L328_07I/GpL16-k0 (antibody, human IgG1, kappa)
heavy 1: not shown
heavy 2: not shown
light: B1 light
notes: as for B1
B10: GpH7-A5/GpH7-B3 variant L328_09D/GpL16-k0 (antibody, human IgG1, kappa)
heavy 1: not shown
heavy 2: not shown
light: B1 light
notes: as for B1
B11: GpH7-A5/GpH7-B3 variant L328_10E/GpL16-k0 (antibody, human IgG1, kappa)
heavy 1: not shown
heavy 2: not shown
light: B1 light
notes: as for B1
B12: GpH7-A5/GpH7-B3 variant L328_15Y/GpL16-k0 (antibody, human IgG1, kappa)
heavy 1: not shown
heavy 2: not shown
light: B1 light
notes: as for B1
B13: GpH7-A5/GpH7-B3 variant L328_20W/GpL16-k0 (antibody, human IgG1, kappa)
heavy 1: not shown
heavy 2: not shown
light: B1 light
notes: as for B1
B14: GpH7-A5/GpH7-B3 variant N325_13S/GpL16-k0 (antibody, human IgG1, kappa)
heavy 1: not shown
heavy 2: not shown
light: B1 light
notes: as for B1
B15: GpH7-A5/GpH7-B3 variant N325_14T/GpL16-k0 (antibody, human IgG1, kappa)
heavy 1: not shown
heavy 2: not shown
light: B1 light
notes: as for B1
B16: GpH7-A5/GpH7-B3 variant N325_15Y/GpL16-k0 (antibody, human IgG1, kappa)
heavy 1: not shown
heavy 2: not shown
light: B1 light
notes: as for B1
B17: GpH7-A5/GpH7-B3 variant N325_16H/GpL16-k0 (antibody, human IgG1, kappa)
heavy 1: not shown
heavy 2: not shown
light: B1 light
notes: as for B1

target: T1, FcγRIIa H (human, UniProt P12318 34-217); assay: SPR (Biacore), captured antibody, FcγR analyte; relative to GpH7-A5/GpH7-B3/GpL16-k0 = 100
T1 construct: extracellular domain; Soluble His-tagged extracellular domain expressed in FreeStyle293 cells; also called FcγRIIa type H; FcgRIIa H; not shown: His tag attached to the C terminus
T1 sequence (looked up): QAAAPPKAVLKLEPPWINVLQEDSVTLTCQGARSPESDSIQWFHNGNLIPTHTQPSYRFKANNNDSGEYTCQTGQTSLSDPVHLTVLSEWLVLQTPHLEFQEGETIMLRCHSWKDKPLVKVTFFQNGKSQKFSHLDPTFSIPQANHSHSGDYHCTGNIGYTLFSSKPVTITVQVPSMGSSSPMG
Description: (§1) Analysis of interaction between objective antibody and the FcγR was carried out using Biacore T100 (GE Healthcare). HBS-EP+ (GE Healthcare) was used as the running buffer, and the measurement temperature was set to 25° C. Chips produced by immobilizing the antigen peptide by the amine coupling method to a Series S Sencor Chip CM5 (GE Healthcare), or alternatively, chips produced by allowing preliminarily biotinylated antigen peptides to interact with and immobilize onto a Series S Sensor Chip SA (certified) (GE Healthcare) were used. Antibodies of interest were captured onto an antigen peptide-immobilized chip, and allowed to interact to each FcγR diluted with running buffer. To regenerate and repeatedly use the chip, the antibodies captured on the chip were washed off by reacting 10 mM glycine-HCl, pH 1.5.
(§2) The FcγR-binding activity of each antibody was assessed primarily using as an indicator the FcγR-binding activity and dissociation constant for FcγR.

He/Con_2aH	Binder
45.6 relative (control = 100)	B1
66.8 relative (control = 100)	B2
85.7 relative (control = 100)	B3
108 relative (control = 100)	B4
97.8 relative (control = 100)	B5
71.7 relative (control = 100)	B6
45.4 relative (control = 100)	B7
104 relative (control = 100)	B8
93.9 relative (control = 100)	B9
58.5 relative (control = 100)	B10
55.5 relative (control = 100)	B11
90 relative (control = 100)	B12
113 relative (control = 100)	B13
79.7 relative (control = 100)	B14
62.7 relative (control = 100)	B15
41.2 relative (control = 100)	B16
48 relative (control = 100)	B17

target: T2, FcγRIIb (human, UniProt P31994 43-217); assay: as above
T2 construct: extracellular domain; Soluble His-tagged extracellular domain expressed in FreeStyle293 cells; also called FcgRIIb; 2b; not shown: His tag attached to the C terminus
T2 sequence (looked up): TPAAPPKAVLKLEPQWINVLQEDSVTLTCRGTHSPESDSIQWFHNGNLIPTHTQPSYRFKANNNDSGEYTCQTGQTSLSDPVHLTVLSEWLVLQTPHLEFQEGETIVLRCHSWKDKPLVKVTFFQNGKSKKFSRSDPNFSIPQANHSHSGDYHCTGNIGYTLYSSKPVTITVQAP
Description: as §1, §2

He/Con_2b	Binder
89.4 relative (control = 100)	B1
113 relative (control = 100)	B2
137 relative (control = 100)	B3
142 relative (control = 100)	B4
126 relative (control = 100)	B5
219 relative (control = 100)	B6
65.1 relative (control = 100)	B7
142 relative (control = 100)	B8
160 relative (control = 100)	B9
199 relative (control = 100)	B10
172 relative (control = 100)	B11
193 relative (control = 100)	B12
235 relative (control = 100)	B13
177 relative (control = 100)	B14
91.6 relative (control = 100)	B15
99.5 relative (control = 100)	B16
70.1 relative (control = 100)	B17

target: T1, FcγRIIa H; assay: SPR (Biacore); He/Con_2aH divided by He/Con_2b (FcγRIIb) of the same antibody
Description: The heterodimerized antibodies He Abs in which one of the H chains was introduced with an alteration were assayed for their binding activities to each activating FcγR and inhibitory FcγR according to the method described in Example 4. […] The activating FcγRs in FIGS. 26, 27, 28, and 29 are FcγRIa, FcγRIIa (R), FcγRIIa (H), and FcγRIIIa, respectively.
as §1

He_2aH/2b [ratio]	Binder
0.51	B1
0.59	B2
0.63	B3
0.76	B4
0.78	B5
0.33	B6
0.7	B7
0.73	B8
0.59	B9
0.29	B10
0.32	B11
0.47	B12
0.48	B13
0.45	B14
0.68	B15
0.41	B16
0.68	B17
